This note sets out measurements from US20130059292A1 (APTAMER SCIENCES, published 2013).

For the assay, the target named is T1, epidermal growth factor receptor (EGFR) (human, UniProt P00533 25-1210).
T1 construct: Endogenous protein in A431 cell lysate; also called EGF receptor
Description: Co-AP with EGFR aptamer-magnetic agarose beads from EGF-stimulated A431 cell lysate, Western blot.
Description: In order to study additional DxSO₄ effects in Co-AP assays, Co-AP experiments were performed with various DxSO₄ concentrations in a binding buffer. […] The mixed solution was washed four times with a lysis buffer. The bound complex was eluted by 20 mM EDTA in 40 mM HEPES containing 0.1M NaCl.

B1: PDK1 (enzyme, human, UniProt O15530 1-556, looked up)
chain: MARTTSQLYDAVPIQSSVVLCSCPSPSMVRTQTESSTPPGIPGGSRQGPAMDGTAAEPRPGAGSLQHAQPPPQPRKKRPEDFKFGKILGEGSFSTVVLARELATSREYAIKILEKRHIIKENKVPYVTRERDVMSRLDHPFFVKLYFTFQDDEKLYFGLSYAKNGELLKYIRKIGSFDETCTRFYTAEIVSALEYLHGKGIIHRDLKPENILLNEDMHIQITDFGTAKVLSPESKQARANSFVGTAQYVSPELLTEKSACKSSDLWALGCIIYQLVAGLPPFRAGNEYLIFQKIIKLEYDFPEKFFPKARDLVEKLLVLDATKRLGCEEMEGYGPLKAHPFFESVTWENLHQQTPPKLTAYLPAMSEDDEDCYGNYDNLLSQFGCMQVSSSSSSHSLSASDTGLPQRSGSNIEQYIHDLDSNSFELDLQFSEDEKRLLLEKQAGGNPWHQFVENNLILKMGPVDKRKGLFARRRQLLLTEGPHLYYVDPVNKVLKGEIPWSQELRPEAKNFKTFFVHTPNRTYYLMDPSGNAHKWCRKIQEVWRQRYQSHPDAAVQ
notes: also called phosphoinositide dependent kinase 1; PDPK1
Take B1: the binding result was “binds”.
